Assay: soluble on expression in E. coli; label from the status in PepcDB or PDB records

Sequence	soluble on expression in E. coli
MAHHHHHHMVCRSKRASSFRHRVVHACVTEQRVLPSCRIHVVLRNFSADFSSLSPRCHYTSAGLLLHPSPLPPPSSTSSRLSTSIPPFRFTRAESSAAVFSMSIGTDYLSAMLNYNGCLQERILRRLLIIENETDSLLALRCALVPLQTPTRKRKRHTEPVAAQGTSFNVDVDTTRHRWSTELCEALNDEAAKANCIASLCPPAKERWCAVAAALRRAGHPSFTPYELFTKYKEMHSDSRPFALSEARFVCQYVQEHGGDWQGLCQALRQRLGHVRSPFQVAQQYRQRLRCAFVENRLTSSQLLTLLADLPASPQDRDFAALSVEAQRFTSHKTLQVSPLYLKRELEPLDFAARVPTCHHLYWKLVNLLCNFTLSHPNRLHAFQHRMPFCYQQRSLADLARSLQCEAAELQERVVHALLRLSRPPEALNYEECSKKLFGTVCGAQLIYQISEKLHEKDI	soluble
ATDTLANEDCFRHESLVPNLDYERFRGSWIIAAGTSEALTQYKCWIDRFSYDDALVSKYTDSQGKNRTTIRGRTKFEGNKFTIDYNDKGKAFSAPYSVLATDYENYAIVEGCPAAANGHVIYVQLRMTLRRFHPKLGDKEMLQHYTLDQVNQNKKAIEEDLKHFNLKYEDLHSTCH	soluble
MGSDKIHHHHHHMPDSPTTTSTLDLELLRTFVAVVDQHSFAQAGAHLARTQSSVTQHMQRLEQQTGVSLFQKKGRHKQLTESGRQLLRHARQMLSLNDDALNSLRDSSLSGVLRIGSPHDIADTILPPLLSHIARSAPRLRLEIDVGRSPFLMDDLHRGKVDMVISTREDPTLEGFALRTSPVWWICSAQYIHVPGEPLPLILVDEPSIYRRYALHALEAANIPWRQAYLASNLIGIKAATRAGLGVTPRSMEMLGPDMRVLGESEGLPRLPDVTYHLWIRPNTLNPLARKAYELIRASQSL	not soluble
MEKQPNKLIREKSPYLLQHAWNPVDWHPWGEEAFSRARETGRPIFLSSGYSTCHWCHVMEHESFENAETAALLNRHFVPVKLDREEHPDVDHLYMMFVQATTGRGGWPMSVWMTPDLKPFFGGSYFPATERWGMPSFRSVLEHLANLWEHDRPRLLASAGSIMDQLSGLTRP	not soluble
MGHHHHHHSHIEETTMTTQTPAPIQAPSAILPLPGQSVERLCVDPRHRQGPVNLLSDPEQGVEVTGQYEREKAGFSWIEVTFKNPLVWVHASPEHVVVTRNRRSSAYKWKETLFSVMPGLKMTMDKTGLLLLSDPDKVTIGLLFWDGRGEGLRLLLRDTDRFSSHVGGTLGQFYQEVLWGSPAASD	not soluble
MGSSHHHHHHSSGLVPRGSHELGGRVSGSLAWRVARGETGLERKEILFIPSENEKISKQFHLRYDIVRDRYIRVSDNNTNISGWENGVWKMESIFRKVEKDWNMVYLARKEGSSFAYISWKFECGSAGLKVDTVSIRTSSQSFESGSVRWKLRSETAQVNLLGDKNLRSYNDFSGATEVTLEAELSRGDGDVAWQHTQLFRQSLNDSGENGLEIIITFNDL	soluble
HPECKKSVEDVNNDLKKFVSINGKKTVTEFHRELGKIMWNNVGMARSEESCKEALKVIPQIREEFWKNVKVSGSGAEFNQQLENAGRVADFLEFAELMTLDALHRNESCGGHFRVEHQMPD	not soluble
MEQIVSSLWSDCLNHLQTKVSPIDYSTWLRPLQASFANEELTLYAQNPFVENWVKDKFLTEIIDLARFLSKNEQLKITIRVGNKPTEQNLSASSTNKEELTQDTVHKFKTGLNGRLTFDNFVQGKSNQLAKAVAQQVADNPGESHCNPFSLYGGTGLGKTHLLHAVGNEILKRNPQARVVYIHSERFVQDMVKALKNNTIENFKKFYRSLDVLMIDDIQFFAKKEASQEEFFHTFNSLFERNKQIILASDHFPKNIENIEERIKSRLNWGVSTAIEPPELETRVAILMKKAEERNVELPEEVAFYLGQKLRTNVRELEGAINRVSAWCNFTKRQITIDAVRETLKDLIASYDHLVTIENIQKIVAEYYNIKMADLKSKSRTRSIARPRQMAMALAKELTSHSLPEIGREFGGRDHTTVMHACKTINELRDTDNSIQEDYTNLTRKLSSLEHHHHHH	soluble
AVVATDAYVKRTNIFYHASSSRLLAVGHPYYSIKKVNKTVVPKVSGYQYRVFKVVLPDPNKFALPDSSLFDPTTQRLVWACTGLEVGRGQPLGVGVSGHPLLNKYDDVENSGGYGGNPGQDNRVNVGMDYKQTQLCMVGCAPPLGEHWGKGTQSSNTSVQNGDCPPLELITSVIQDGDMVDTGFGAMNFADLQTNKSDVPLDICGTVCKYPDYLQMAADPYGDRLFFYLRKEQMFARHFFNRAGTVGEPVPDDLLVKGGNNRSSVASSIYVHTPSGSLVSSEAQLFNKPYWLQKAQGHNNGICWGNHLSVTVVDTTRSTNMTLCASVSKSATYTNSDYKEYMRHVEEFDLQFIFQLCSITLSAEVMAYIHTMNPSVLEDWNGGSGGKQDPYKDMSFWEVNLKEKFSSELDQFPLGRKFLLQSGY	soluble
MPAILSRVAPRTFNLVGSRLMASAARLETVPREEIHKEYDRKKTFYHRDLEIQLAGPTQLKTKPLDPTKLKFGHTYADYMMTCDWDAERGWHHPKIEPIGELKIHPGAKVLHYASELFEGMKAYRGIDNKIRMFRPEMNMARMKRTALRAALPDFDSEEMINVLTELLRLDQEWVPNSDVCSLYLRPTLIGTDPTLGVGCATEAKMFVITGPVGAYYSTGFQPVSLLADSRFIRAFPGGVGAYKMGCNYAPTIWVGKEAASKNCQQVLWLYGENEDLTEVGTMNIFLFWKNEEGDMELITPPLHRGLILPGVTRDSLLELGREWGEYKVTERTLNMEEVKKALSEKRLYEMFGSGTACVVSPVGKILYHNKVTDEYEELHIPTMSSKFGVMQKFYNTINDIQYGRIIKDGWMRDI	not soluble
MSLDRNEMLEFAAKLHSHLSPGVALGIKMAQIAYEKLGVNFRGKGLVGIAETAMCLPDALQVVAGTTPGNRNLIVKDYGKLALAIVRFDTREGYRVTIKKEAAKKSELIKKFLYRLGKLNKEEEKRLAEEFLNLEPEYFEVREIRLTIPVGGTKEPIVECEKCGELQPSDYVAEVDGRMVCFMCAGKGYFEEGGSHHHHHH	soluble
MTVVTTADTSQLYALAARHGLKLHGPLTVNELGLDYRIVIATVDDGRRWVLRIPRRAEVSAKVEPEARVLAMLKNRLPFAVPDWRVANAELVAYPMLEDSTAMVIQPGSSTPDWVVPQDSEVFAESFATALAALHAVPISAAVDAGMLIRTPTQARQKVADDVDRVRREFVVNDKRLHRWQRWLDDDSSWPDFSVVVHGDLYVGHVLIDNTERVSGMIDWSEARVDDPAIDMAAHLMVFGEEGLAKLLLTYEAAGGRVWPRLAHHIAERLAFGAVTYALFALDSGNEEYLAAAKAQLAAAE	not soluble
MIHLARRRIVLTTPYFVPDEATLSALRIAGTSGVDVQLILSESNNQFLMAWAQEAYFEELLRAGIKIALYRPHFLHAKHLSVDDDIALFGSINLDIRSFALNAEIGMICYDSRIVTQLREVESDYLANARQLNLVEWQQRPAWRRSREGIARLADALM	not soluble
TAPIAITCFTRGLDIRKEKADVLCPGGCPLEEFSVYGNIVYASVSSICGAAVHRGVISNSGGPVRVYSLPGRENYSSVDANGIQSQMLSRWSASFTVTLE	soluble
MTDYFTAHDVLKKVEGLNSLSTLNKWANFIQKECDYQFHYDYIRFASHTRTKRTINHRKTRMFSLEEIQKFQKVIKLIPILGRNTSLRKLFDKKHHLDTMNHSELLTEIINQIEVKLANKEELFQALTKKYQQLERSYQTLEQRLAQLEESLSTQEQTSSGWFRRKR	not soluble
MRRLAWLLPLLLLAGAVGALRYQWLDLPARWNPWLPLDVREPPNLLTRYKLWRLADDRSLCDAALATSQLRYQRVADDPPSATCPLSNSLRVRGAALELSSSFLASCPLAVSYALFERHVLQPAALDIYGQPLARVEHVGSFACRNVYNREDGRRSQHASANALDISGFRLADGRRIRLATDWAGESADGRFLRRVRDGACASFNAVLGPDYNAAHRDHFHLDMGLWKVCRLEHHHHHH	not soluble
MTLFDRKTFDRVLGEWPGVRFVDQWDSHVAKVGDKVFAVLGEREDWRLVVKCSEESFEILTSLEGIAQAPYFAKRKWISIGDHSPLEQEELEHYVRRSYELVAAGLTKKLRGELGIVIDNAPRL	soluble
MAQFIDRRLNGKKKSTVNRQRFIRRHKDQIKRAVSDAVNQRSVTNTESGESISIPKGDISEPVFHQGQGGIRERVLPGNDQFIKGDKIERPQGGNGGGGAGDGDASADGEGQDDFIFQISKDEYLDILFEELELPNLEKNQVQKITEWETHRAGYQTAGVPSNIDIVRSLQQSLARRTAMTAGKKRLLSELEQELETIKNSEPSQPLAVRKMQEQIEELRERIKHVPYIDSFDLRYKNYERTPIPSSQAVMFCLMDVSGSMDQATKDIAKRFYVLLYLFLTRTYENVEVVFIRHHTQAKEVNEHDFFYSQETGGTMVSSALKLMRDIVAERFPANEWNIYAAQASDGDNWADDSPKCKELLTSSILPTCQYYSYIEITKRHHQTLWTEYDKLAQGFDNFAMKNIRSVEDIYPIFRELFQKQLALEHHHHHH	not soluble
MSLTEAAKLTFKVTNPNEKVKVRLTFSQSGEQKEVAIDAAGNGNIEITGFTPQYVTMQYTRGRRTLYLDPNQDLTLSFDSDNMWRNTTFEGAGAAINTYLGSKELQSLGMPDMKMQEAALIHKGDSLYAANCQVLEAAKLPADFTAQEKIRLQFYTYYYFSKYALYHPHFGKDDNYIPSKAYYEKLEAITPINAGLLALKEYKAFLPDAISAFSNKGKTVASNSTEQSVNYVDATIQDEKVAEFLIDQFVYNFVDNNGLDEADGLIVLFRKHVKDAKSIEKFNALCTKWEKLRSGNPSAASFSYPDINGKTVSLADLKGKYIYIDVWATWCGPCRGELPALKELEEKYAGKDIHFVSLSCDKNKKAWENMVTKDQLKGIQLHMGTDRTFMDAYLINGIPRFILLDRDGKIISANMTRPSDPKTAEKFNELLGLEGHHHHHH	soluble
MQRETVWLVEDEQGIADTLVYMLQQEGFAVEVFERGLPVLDKARKQVPDVMILDVGLPDISGFELCRQLLALHPALPVLFLTARSEEVDRLLGLEIGADDYVAKPFSPREVCARVRTLLRRVKKFSTPSPVIRIGHFELNEPAAQISWFDTPLALTRYEFLLLKTLLKSPGRVWSRQQLMDSVWEDAQDTYDRTVDTHIKTLRAKLRAINPDLSPINTHRGMGYSLRGL	soluble
GPQLDHVDIDLTDKAAMQDGARTFANYCMGCHSAKFQRYERVATDLGIPADLMMEKLVFTGAKIGDHMDIGMKPADAKTWFGAAPPDLTLVARVRGTDWLYSYLRSFYEDPKRPWGVNNVIFPNVGMPNVLAPLQGRQVIGCKQVQVVEDGKKQFDPLTGTPLTHEACDQLTVVPKTGELNEAQFDEKVKNLVTFLAYSANPNKLASERIG	not soluble
MGHHHHHHSHMGKWHVGGRRGSPRQWGATARGRDLEAVRRGGCGSVGRRRQRRRRRRRRMRRMRRMWATQGLAVRVALSVLPGSRALRPGDCEVCISYLGRFYQDLKDRDVTFSPATIENELIKFCREARGKENRLCYYIGATDDAATKIINEVSKPLAHHIPVEKICEKLKKKDSQICELKYDKQIDLSTVDLKKLRVKELKKILDDWGETCKGCAEKSDYIRKINELMPKYAPKAASAPTDL	not soluble
MFRTAETSRDTLITTAYRLHRTRWRILEPYRRLKNALKKLQEDYLKSKEANALMRYVKLGQSVREVAMLEKQYWKLLNIPAQEGTEDANCYVVKIIELLEDTPTQLPPTRGIGALLQSTIGKPAEANVDTVLHDSLKARKSEDLVKECEGLYAQLYRLTKKYLGLRRLIKELHDKYEATRMFPIVPRYAMLKKMIKATLRAPEFADICHEQTE	not soluble
MFLPKFNPIRSFSPILRAKTLLRYQNRMYLSTEIRKAIEDAIESAPVVLFMKGTPEFPKCGFSRATIGLLGNQGVDPAKFAAYNVLEDPELREGIKEFSEWPTIPQLYVNKEFIGGCDVITSMARSGELADLLEEAQALVPEEEEETKDR	soluble

Source: the DeepSol protein solubility set
